Experimental data published in patent US20260116920A1 (PEPTIDREAM, published 2026).
Starred links: 1 amine or outer side, 2 acyl side, 3 side chain; linkers in the order of their positions; H or OH if unused. Positions of bridges follow the written chain, without caps; N, C: chain ends. Non-standard residues stand in square brackets, D forms with d. Primed or numbered codes have the meaning given here. No end group written: not given here. E(PEG8Me) = (S)-30-amino-27-oxo-2,5,8,11,14,17,20,23-octaoxa-26-azahentriacontane-31-oic acid, COCCOCCOCCOCCOCCOCCOCCOCCNC(=O)CC[C@H](N[*:1])C(=O)[*:2]; E(PEG4Me) = (S)-18-amino-15-oxo-2,5,8,11-tetraoxa-14-azanonadecane-19-oic acid, COCCOCCOCCOCCNC(=O)CC[C@H](N[*:1])C(=O)[*:2]; Phe(4-OMe)(3) = (S)-2-amino-3-(4-methoxyphenyl)propanoic acid (source code F4OMe), COc1ccc(C[C@H](N[*:1])C(=O)[*:2])cc1; F4aao = (S)-2-amino-3-(4-(carboxymethoxy)phenyl)propanoic acid, O=C([C@H](Cc1ccc(OCC(=O)[*:3])cc1)N[*:1])[*:2]; Phe(4-OMe) = F4OMe = (S)-2-amino-3-(4-methoxyphenyl)propanoic acid, COc1ccc(C[C@H](N[*:1])C(=O)[*:2])cc1; E(NHdPEG1Me) = N5-(1,3-dimethoxypropan-2-yl)-L-glutamine, COCC(COC)NC(=O)CC[C@H](N[*:1])C(=O)[*:2]; dkCOmeglumine = N6-(methyl((2S,3R,4R,5R)-2,3,4,5,6-pentahydroxyhexyl)carbamoyl)-D-lysine; Trp(1-CH2CO) = O=C([C@H](Cc1cn(CC(=O)[*:3])c2ccccc12)N[*:1])[*:2]; Trp(5-Cl) = N[C@@H](Cc1c[nH]c2ccc(Cl)cc12)C(=O)O; Nle(6-morpholino) = N[C@@H](CCCCN1CCOCC1)C(=O)O; Phe(3-COOH) = N[C@@H](Cc1cccc(C(=O)O)c1)C(=O)O; Trp(7-aza) = N[C@@H](Cc1c[nH]c2ncccc12)C(=O)O; NMePhe(3-Cl) = CN[C@@H](Cc1cccc(Cl)c1)C(=O)O; NMePhe(4-F) = CN[C@@H](Cc1ccc(F)cc1)C(=O)O; 3Pal(6-NH2) = Nc1ccc(C[C@H](N)C(=O)O)cn1; NMeW = CN[C@@H](Cc1c[nH]c2ccccc12)C(=O)O; PEG8 = NCCOCCOCCOCCOCCOCCOCCOCCOCCC(=O)O; Lys(N3) = [N-]=[N+]=NCCCC[C@H](N)C(=O)O; NMeY = CN[C@@H](Cc1ccc(O)cc1)C(=O)O; NMeR = CN[C@@H](CCCNC(=N)N)C(=O)O; NMeF = CN[C@@H](Cc1ccccc1)C(=O)O; 3Pal = N[C@@H](Cc1cccnc1)C(=O)O; 4Pal = N[C@@H](Cc1ccncc1)C(=O)O

B1: 894_0262 (peptide)
peptide: {CH2CO}-AV[NMePhe(4-F)]V[NMeW]NY[Phe(4-OMe)]II[NMeR][dR]FYC-NH2
modifications: thioether N-15; not fully specified (residue 14); also: linker PEG4c, place not given here
B2: 894_0375 (peptide)
peptide: {CH2CO}-AV[NMePhe(3-Cl)]VWN[3Pal(6-NH2)][3Pal]IIR[E(PEG8Me)][4Pal]YC-NH2
modifications: thioether N-15; not fully specified (residue 14); also: linker PEG4c, place not given here
B3: 894_3193 (peptide)
peptide: AVFVWNYAIIRRAYC
modifications: 3:MeF3C,8:3Py,13:4Py,14:MeY; linker G-de-de-de-ds-ds-KN3; ClAc-1/C15 thioether ring; C-term NH2
B4: 894_3182 (peptide)
peptide: {CH2CO}-AV[NMePhe(3-Cl)]V[Trp(1-CH2CO)]NY[F4aao]IIRRF[NMeY]CG[PEG8][Lys(N3)]-NH2
modifications: thioether N-15
SMILES: CC[C@H](C)[C@@H]1NC(=O)[C@H](Cc2ccc(OCC(=O)O)cc2)NC(=O)[C@H](Cc2ccc(O)cc2)NC(=O)[C@H](CC(N)=O)NC(=O)[C@H](Cc2cn(CC(=O)O)c3ccccc23)NC(=O)[C@H](C(C)C)NC(=O)[C@H](Cc2cccc(Cl)c2)N(C)C(=O)[C@H](C(C)C)NC(=O)[C@H](C)NC(=O)CSC[C@@H](C(=O)NCC(=O)NCCOCCOCCOCCOCCOCCOCCOCCOCCC(=O)N[C@@H](CCCCN=[N+]=[N-])C(N)=O)NC(=O)[C@H](Cc2ccc(O)cc2)N(C)C(=O)[C@H](Cc2ccccc2)NC(=O)[C@H](CCCNC(=N)N)NC(=O)[C@H](CCCNC(=N)N)NC(=O)[C@H]([C@@H](C)CC)NC1=O
B5: 894_0259 (peptide)
peptide: {CH2CO}-AV[NMePhe(4-F)]V[Trp(5-Cl)]NY[Phe(4-OMe)]II[NMeR][dR]FYC-NH2
modifications: thioether N-15; not fully specified (residue 14); also: linker PEG4c, place not given here
B6: 894_0253 (peptide)
peptide: {CH2CO}-AV[NMeF]V[Trp(5-Cl)]NY[Phe(4-OMe)]IIR[dR]FYC-NH2
modifications: thioether N-15; not fully specified (residue 14); also: linker PEG4c, place not given here
B7: 894_0258 (peptide)
peptide: {CH2CO}-AV[NMePhe(4-F)]V[Trp(5-Cl)]NY[Phe(4-OMe)]IIR[dR]FYC-NH2
modifications: thioether N-15; not fully specified (residue 14); also: linker PEG4c, place not given here
B8: 894_0261 (peptide)
peptide: {CH2CO}-AV[NMePhe(4-F)]V[NMeW]NY[Phe(4-OMe)]IIR[dR]FYC-NH2
modifications: thioether N-15; not fully specified (residue 14); also: linker PEG4c, place not given here

Target: T1, human transferrin receptor (hTfR) (human, UniProt P02786 89-760)
T1 construct: used as 0.5 uM hTfR dimer solution, immobilised on an NTA sensor chip (Ni capture plus EDC/NHS coupling); also called human TfR; TfR1
Experiment: SPR; B = KD 1-100 nM
How it was run: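 Recombinant hTfR dimer immobilised on Ni-NTA chip with EDC/NHS coupling; running buffer 10 mM HEPES pH 8.0, 150 mM NaCl, 0.05% Tween 20, 0.1% BSA, 1.0% DMSO. Peptides injected at 5–100 nM in single-cycle kinetics; KD from least-squares sensorgram fitting.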

T1 sequence (P02786 89-760 limits assumed): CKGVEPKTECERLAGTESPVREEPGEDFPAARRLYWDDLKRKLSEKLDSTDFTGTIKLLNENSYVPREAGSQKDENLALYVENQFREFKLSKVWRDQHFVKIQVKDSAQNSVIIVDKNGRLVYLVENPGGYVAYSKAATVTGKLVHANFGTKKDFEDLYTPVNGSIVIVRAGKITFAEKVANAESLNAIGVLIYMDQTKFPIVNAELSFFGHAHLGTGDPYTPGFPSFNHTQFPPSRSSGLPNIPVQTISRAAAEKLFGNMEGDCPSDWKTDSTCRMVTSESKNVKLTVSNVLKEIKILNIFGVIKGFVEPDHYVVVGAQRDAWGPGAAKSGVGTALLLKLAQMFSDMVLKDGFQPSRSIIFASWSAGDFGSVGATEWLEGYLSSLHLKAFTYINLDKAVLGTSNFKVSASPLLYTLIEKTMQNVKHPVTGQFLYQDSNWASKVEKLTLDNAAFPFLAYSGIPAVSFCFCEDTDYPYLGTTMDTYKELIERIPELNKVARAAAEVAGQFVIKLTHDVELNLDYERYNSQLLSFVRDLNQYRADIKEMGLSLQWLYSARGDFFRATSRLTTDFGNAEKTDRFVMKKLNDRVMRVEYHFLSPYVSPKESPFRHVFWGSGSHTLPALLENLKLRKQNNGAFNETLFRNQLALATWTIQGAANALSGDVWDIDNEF

KD	Binder
1 to 100 nM	{CH2CO}-AV[NMeF]VWNY[Phe(4-OMe)]II[NMeR]RFYC-NH2 (thioether N-15; not fully specified (residue 14); also: linker PEG4c) [894_0285, listing 1 of 2 here]
1 to 100 nM	B1
1 to 100 nM	B2
1 to 100 nM	{CH2CO}-AV[NMePhe(3-Cl)]VWNY[3Pal]IIRR[4Pal][NMeY]CG-{dkCOmeglumine-dkCOmeglumine-dkCOmeglumine-dS-dS-Lys(N3)-NH2} (thioether N-15) [894_3192]
1 to 100 nM	{CH2CO}-AV[NMePhe(3-Cl)]V[Trp(7-aza)]NY[F4aao]II[E(PEG8Me)][Nle(6-morpholino)][4Pal][NMeY]C-NH2 (thioether N-15; also: linker PEG4c, attachment not given here) [894_0426]
1 to 100 nM	{CH2CO}-AV[NMePhe(3-Cl)]V[Trp(7-aza)]NY[F4aao]IIQ[Nle(6-morpholino)][4Pal][NMeY]C-NH2 (thioether N-15; also: linker PEG4c, attachment not given here) [894_0425]
1 to 100 nM	{CH2CO}-AV[NMePhe(3-Cl)]V[Trp(1-CH2CO)]NY[F4aao]IIQR[4Pal][NMeY]C-NH2 (thioether N-15; also: linker PEG4c, place not given here) [894_0419]
1 to 100 nM	{CH2CO}-AV[NMePhe(3-Cl)]V[Trp(1-CH2CO)]NY[F4aao]II[E(NHdPEG1Me)]RF[NMeY]C-NH2 (thioether N-15; also: linker PEG4c, place not given here) [894_0396]
1 to 100 nM	{CH2CO}-AV[NMeF]V[Trp(1-CH2CO)]NY[F4aao]IIRRY[NMeY]C-NH2 (thioether N-15; also: linker G-de-de-de-ds-ds-KN3, attachment not given here) [894_3170]
1 to 100 nM	{CH2CO}-AV[NMePhe(3-Cl)]V[Trp(1-CH2CO)]NY[F4aao]II[E(PEG4Me)]RF[NMeY]C-NH2 (thioether N-15; also: linker PEG4c, place not given here) [894_0395]
1 to 100 nM	B3
1 to 100 nM	{CH2CO}-AV[NMePhe(3-Cl)]VWNY[Phe(4-OMe)(3)]IIKRF[NMeY]C (thioether N-15; not fully specified (C-terminus)) [894_3150]
1 to 100 nM	{CH2CO}-AV[NMeF]VWNY[F4aao]IIRRY[NMeY]C-NH2 (thioether N-15; also: linker G-de-de-de-ds-ds-KN3, attachment not given here) [894_3169]
1 to 100 nM	{CH2CO}-AV[NMeF]VWNYYIIRRY[NMeY]C-NH2 (thioether N-15; also: linker G-de-de-de-de-de-C(AcNMe), place not given here) [894_0394]
1 to 100 nM	{CH2CO}-AV[NMePhe(3-Cl)]V[Trp(1-CH2CO)]NY[F4aao]IIQR[Phe(3-COOH)][NMeY]C-NH2 (thioether N-15; also: linker PEG4c, attachment not given here) [894_0421]
1 to 100 nM	{CH2CO}-AV[NMePhe(3-Cl)]V[Trp(1-CH2CO)]NY[F4aao]IIQ[Nle(6-morpholino)][4Pal][NMeY]C-NH2 (thioether N-15; also: linker PEG4c, attachment not given here) [894_0420]
1 to 100 nM	{CH2CO}-AV[NMePhe(3-Cl)]V[Trp(7-aza)]NY[F4aao]IIQ[Nle(6-morpholino)][Phe(3-COOH)][NMeY]C-NH2 (thioether N-15; also: linker PEG4c, attachment not given here) [894_0428]
1 to 100 nM	{CH2CO}-AV[NMePhe(3-Cl)]V[Trp(7-aza)]NY[F4aao]IIQR[4Pal][NMeY]C-NH2 (thioether N-15; also: linker PEG4c, attachment not given here) [894_0424]
1 to 100 nM	{CH2CO}-AV[NMePhe(3-Cl)]VWN[3Pal(6-NH2)][F4aao]IIR[E(PEG8Me)][Phe(3-COOH)][NMeY]C-NH2 (thioether N-15; also: linker PEG4c, place not given here) [894_0376]
1 to 100 nM	{CH2CO}-AV[NMePhe(3-Cl)]VWN[3Pal(6-NH2)][F4aao]IIR[E(PEG8Me)][4Pal][NMeY]C-NH2 (thioether N-15; also: linker PEG4c, place not given here) [894_0377]
1 to 100 nM	{CH2CO}-AV[NMeF]VWNYYIIRRY[NMeY]C-NH2 (thioether N-15; also: linker G-de-de-de-S-S-C(AcNMe), place not given here) [894_0393]
1 to 100 nM	{CH2CO}-AV[NMeF]VWNY[Phe(4-OMe)]IIR[dR]FYC-NH2 (thioether N-15; not fully specified (residue 14); also: linker PEG4c) [894_0283, listing 1 of 2 here]
1 to 100 nM	B4
1 to 100 nM	{CH2CO}-AV[NMeF]VWNY[Phe(4-OMe)]IIR[dR]FYC-NH2 (thioether N-15; not fully specified (residue 14); also: linker PEG4c) [894_0283, listing 2 of 2 here]
1 to 100 nM	{CH2CO}-AV[NMeF]VWNY[Phe(4-OMe)]II[NMeR]RFYC-NH2 (thioether N-15; not fully specified (residue 14); also: linker PEG4c) [894_0285, listing 2 of 2 here]
1 to 100 nM	B5
1 to 100 nM	{CH2CO}-AV[NMePhe(3-Cl)]V[Trp(1-CH2CO)]NY[F4aao]IIRRFYC-NH2 (thioether N-15; not fully specified (residue 14); also: linker PEG4c) [894_0295]
1 to 100 nM	B6
1 to 100 nM	B7
1 to 100 nM	B8
